What all share (type): biochemical, Caldanaerobius polysaccharolyticus
Substrate in data set [1]: O=[N+]([O-])c1ccc(O[C@@H]2O[C@H](CO)[C@@H](O)[C@H](O)[C@@H]2O)cc1
Put plainly: Kinetic properties with pNP-linked sugars (Man5B E137A). Conditions: other: Man5B E137A 2 μM, at 10 mM substrate, 65° C., pH 5.5. As for the experimental part:
(§1) Determination of kinetic properties for wild type and mutant Man5B with pNP-linked sugars. Kinetic properties of wild type and mutant Man5B were determined for pNP-β-D-mannopyranoside and pNP-β-D-cellobioside. The substrate concentrations ranged from 0.06 to 10 mM and reactions were performed at 65° C. in citrate buffer (50 mM sodium citrate, pH 5.5). The reactions were equilibrated to 65° C. using a thermostated Cary 300 UV-Vis spectrophotometer, and the reactions were initiated by the addition of wild type (5 nM, final concentration) or mutant (2 μM, final concentration) Man5B. The rate of pNP release was determined by continuously monitoring the absorbance at 400 nm. Initial rate data were then plotted against the substrate concentrations, and the values of the Michaelis-Menten constant (KM) and the maximum velocity (Vmax) were estimated from a nonlinear curve fit using GraphPad Prism v5.01 from GraphPad Software (San Diego, Calif.). The kcat was calculated as the quotient of the Vmax and the concentration of enzyme used in the reaction.
(§2) Site-directed mutagenesis. Mutagenesis was carried out using PCR-based […] […]
(§3) Next, to test whether the mutations introduced in Man5B had any effects on the catalytic activity of this enzyme, the catalytic parameters for the wild type and mutant enzymes were determined using pNP-β-D-cellobioside and pNP-β-D-mannopyranoside as substrates.

Substrate in data set [2]: O=[N+]([O-])c1ccc(O[C@@H]2O[C@H](CO)[C@@H](O[C@@H]3O[C@H](CO)[C@@H](O)[C@H](O)[C@H]3O)[C@H](O)[C@H]2O)cc1
The data set is described as above. Conditions: other: Man5B E137A 2 μM, at 10 mM substrate, 65° C., pH 5.5. Here is the method:
as §1, §2, §3

Substrate in data set [3]: O=[N+]([O-])c1ccc(O[C@@H]2O[C@H](CO)[C@@H](O)[C@H](O)[C@@H]2O)cc1
Briefly: Kinetic properties with pNP-linked sugars (Man5B E258Q). Conditions: other: Man5B E258Q 2 μM, at 10 mM substrate, 65° C., pH 5.5. Here is the method: as §1, §2, §3

Substrate in data set [4]: O=[N+]([O-])c1ccc(O[C@@H]2O[C@H](CO)[C@@H](O[C@@H]3O[C@H](CO)[C@@H](O)[C@H](O)[C@H]3O)[C@H](O)[C@H]2O)cc1
Described as above. Conditions: other: Man5B E258Q 2 μM, at 10 mM substrate, 65° C., pH 5.5. Here is the method: as §1, §2, §3

Substrate in data set [5]: O=[N+]([O-])c1ccc(O[C@@H]2O[C@H](CO)[C@@H](O)[C@H](O)[C@@H]2O)cc1
Put plainly: Kinetic properties with pNP-linked sugars (Man5B E137Q). Conditions: other: Man5B E137Q 2 μM, at 10 mM substrate, 65° C., pH 5.5. As for the experimental part:
as §1
(§4) Site-directed mutagenesis. Mutagenesis was carried out using PCR-based […] XL site-directed mutagenesis kit from Stratagene (La Jolla, Calif.) according to the manufacturer's instructions. Mutagenic primers with the desired mutation were designed using the […]® Primer Design Program (Stratagene website) and are listed in Table 1-2). The DNA templates for the PCR amplifications were the pET28a-Man5A-TM1 plasmid and the pET46-Man5B plasmid for generation of the Man5A-TM1 and Man5B mutants, respectively. Following 18 cycles of PCR using Pfu Turbo, the PCR mixture was digested with DpnI at 37° C. for 12 h to remove the parental DNA, and the resulting DNA was transformed into competent E. coli JM109 cells through electroporation. The DNA was sequenced to confirm that there were no PCR-derived nucleotide changes except those introduced by the PCR primers. The mutated genes were then expressed to produce the mutant recombinant proteins. The expression and purification methods were as described above for wild-type Man5A-TM1 and Man5B.
as §3

Substrate in data set [6]: O=[N+]([O-])c1ccc(O[C@@H]2O[C@H](CO)[C@@H](O[C@@H]3O[C@H](CO)[C@@H](O)[C@H](O)[C@H]3O)[C@H](O)[C@H]2O)cc1
The data set is described as above. Conditions: other: Man5B E137Q 2 μM, 65° C., citrate buffer pH 5.5. As for the experimental part: as §1, §4, §3

Substrate in data set [7]: O=[N+]([O-])c1ccc(O[C@@H]2O[C@H](CO)[C@@H](O)[C@H](O)[C@@H]2O)cc1
Briefly: Kinetic properties with pNP-linked sugars (Man5B E258A). Conditions: other: Man5B E258A 2 μM, at 10 mM substrate, 65° C., pH 5.5. As for the experimental part:
as §1, §2, §3

Substrate in data set [8]: O=[N+]([O-])c1ccc(O[C@@H]2O[C@H](CO)[C@@H](O[C@@H]3O[C@H](CO)[C@@H](O)[C@H](O)[C@H]3O)[C@H](O)[C@H]2O)cc1
Described as above. Conditions: other: Man5B E258A 2 μM, at 10 mM substrate, 65° C., pH 5.5. As for the experimental part: as §1, §2, §3

B1: Caldanaerobius polysaccharolyticus endo-β-mannanase Man5B (SEQ ID NO: 31) variant E137A (Caldanaerobius polysaccharolyticus; E137A) (protein)
chain: MKKYGFNFQWMYVWEEGREPEPPDKKALDFLAETGFNFVRIPVDYRFWTRNFDYFNPDKKVFEYIDLYLRECSARNIHMCLNLHRAPGYCINRNDIERDNLWLDKRAQDGFVYQWELFAKRYKGVSSKFLSFDLVNAPPNIGQYGLTRENHASLIIRTVEAIRKIDPDREIVIDGLGGGNIAMPELAHLGVVHSGRGYQPMALTHYQASWWDGHKGLPEPYYPDLLWQGKVWNKDTLREYYKPWRDLQQKGVNVHIGEFGCFNKTSNDVAIRWFEDVLSLYKEFEWGYSLWNFKGPFGIVEHGRPGAKYEYYRGFKVDRELLDLLVENRV
Turning to B1, the kcat turned out to be 0.019 ± 0.001 s⁻¹ in data set [1] and 0.011 ± 0.004 s⁻¹ in data set [2].

B2: Caldanaerobius polysaccharolyticus endo-β-mannanase Man5B (SEQ ID NO: 31) variant E258Q (Caldanaerobius polysaccharolyticus; E258Q) (protein)
chain: MKKYGFNFQWMYVWEEGREPEPPDKKALDFLAETGFNFVRIPVDYRFWTRNFDYFNPDKKVFEYIDLYLRECSARNIHMCLNLHRAPGYCINRNDIERDNLWLDKRAQDGFVYQWELFAKRYKGVSSKFLSFDLVNEPPNIGQYGLTRENHASLIIRTVEAIRKIDPDREIVIDGLGGGNIAMPELAHLGVVHSGRGYQPMALTHYQASWWDGHKGLPEPYYPDLLWQGKVWNKDTLREYYKPWRDLQQKGVNVHIGQFGCFNKTSNDVAIRWFEDVLSLYKEFEWGYSLWNFKGPFGIVEHGRPGAKYEYYRGFKVDRELLDLLVENRV
Take B2: the kcat in data set [3] was determined as 0.012 ± 0.002 s⁻¹; in data set [4] it was 0.012 ± 0.004 s⁻¹.

B3: Caldanaerobius polysaccharolyticus endo-β-mannanase Man5B (SEQ ID NO: 31) variant E137Q (Caldanaerobius polysaccharolyticus; E137Q) (protein)
chain: MKKYGFNFQWMYVWEEGREPEPPDKKALDFLAETGFNFVRIPVDYRFWTRNFDYFNPDKKVFEYIDLYLRECSARNIHMCLNLHRAPGYCINRNDIERDNLWLDKRAQDGFVYQWELFAKRYKGVSSKFLSFDLVNQPPNIGQYGLTRENHASLIIRTVEAIRKIDPDREIVIDGLGGGNIAMPELAHLGVVHSGRGYQPMALTHYQASWWDGHKGLPEPYYPDLLWQGKVWNKDTLREYYKPWRDLQQKGVNVHIGEFGCFNKTSNDVAIRWFEDVLSLYKEFEWGYSLWNFKGPFGIVEHGRPGAKYEYYRGFKVDRELLDLLVENRV
As for B3, in data set [5], the kcat was determined as 0.018 ± 0.006 s⁻¹. In data set [6], the Km result is “(2.9 ± 0.9) × 10^−1 mM”, the kcat came out at 0.047 ± 0.01 s⁻¹ and the kcat/Km was found to be 160 ± 60 M⁻¹ s⁻¹.

B4: Caldanaerobius polysaccharolyticus endo-β-mannanase Man5B (SEQ ID NO: 31) variant E258A (Caldanaerobius polysaccharolyticus; E258A) (protein)
chain: MKKYGFNFQWMYVWEEGREPEPPDKKALDFLAETGFNFVRIPVDYRFWTRNFDYFNPDKKVFEYIDLYLRECSARNIHMCLNLHRAPGYCINRNDIERDNLWLDKRAQDGFVYQWELFAKRYKGVSSKFLSFDLVNEPPNIGQYGLTRENHASLIIRTVEAIRKIDPDREIVIDGLGGGNIAMPELAHLGVVHSGRGYQPMALTHYQASWWDGHKGLPEPYYPDLLWQGKVWNKDTLREYYKPWRDLQQKGVNVHIGAFGCFNKTSNDVAIRWFEDVLSLYKEFEWGYSLWNFKGPFGIVEHGRPGAKYEYYRGFKVDRELLDLLVENRV
As for B4, the kcat in data set [7] was found to be 0.018 ± 0.003 s⁻¹; in data set [8], 0.011 ± 0.001 s⁻¹.

The kcat is the maximal rate divided by the concentration of active sites. One may read the kcat/Km as the turnover number divided by the Michaelis constant.
